According to paper PMC3462767, “Engineering a Disulfide Bond in the Lid Hinge Region of Rhizopus chinensis Lipase: Increased Thermostability and Altered Acyl Chain Length Specificity” (PLoS ONE, 2012):

How the values were obtained:
[1] = test system: CC(=O)Oc1ccc([N+](=O)[O-])cc1; test: purified protein; conditions: free enzyme; emulsified substrate
[2] = test system: CCCCCCCCCCCCCCCC(=O)Oc1ccc([N+](=O)[O-])cc1; test: purified protein; conditions: free enzyme; emulsified substrate
[3] = test system: CC(=O)Oc1ccc([N+](=O)[O-])cc1; test: p-nitrophenol release, Lineweaver-Burk; type: biochemical, Rhizopus microsporus; conditions: RCLCYS, engineered disulfide C95-C214; free enzyme; emulsified substrate
Excerpt: (§1) p-nitrophenol release, Lineweaver-Burk on RCL (R. chinensis lipase)

[4] = test system: CCCCCCCCCCCCCCCC(=O)Oc1ccc([N+](=O)[O-])cc1; test: p-nitrophenol release, Lineweaver-Burk; type: biochemical, Rhizopus microsporus; conditions: RCLCYS, engineered disulfide C95-C214; free enzyme; emulsified substrate
Excerpt: as §1

| Substance | Km [1] | kcat [1] | Km [2] | kcat [2] | Km [3] | kcat [3] | Km [4] | kcat [4] |
| --- | --- | --- | --- | --- | --- | --- | --- | --- |
| RCL (R. chinensis lipase) (Rhizopus microsporus var. chinensis) | 295 ± 6 µM | 17.7 ± 0.2 s⁻¹ | 304 ± 7 µM | 18.9 ± 0.4 s⁻¹ | – | – | – | – |
| RCL (R. chinensis lipase) (Rhizopus microsporus var. chinensis; F215C/F334C) | – | – | – | – | 298 ± 8 µM | 17.3 ± 0.2 s⁻¹ | 450 ± 6 µM | 18.4 ± 0.2 s⁻¹ |
